Measurements as given in US20240124553A1.

Experiments:
Assay in all cases: flow cytometry, transfected 293T cells
[1] = target: CHIKV E2-E1 envelope glycoproteins (strain S27), E2 mutant R36A (chikungunya virus strain S27) (UniProt Q8JUX5)
[2] = target: CHIKV E2-E1 envelope glycoproteins (strain S27), E2 mutant I121A (chikungunya virus strain S27) (UniProt Q8JUX5)
[3] = target: CHIKV E2-E1 envelope glycoproteins (strain S27), E2 mutant N39A (chikungunya virus strain S27) (UniProt Q8JUX5)
[4] = target: CHIKV E2-E1 envelope glycoproteins (strain S27), E2 mutant P106A (chikungunya virus strain S27) (UniProt Q8JUX5)
[5] = target: CHIKV E2-E1 envelope glycoproteins (strain S27), E2 mutant H62A (chikungunya virus strain S27) (UniProt Q8JUX5)
[6] = target: CHIKV E2-E1 envelope glycoproteins (strain S27), E2 mutant R104A (chikungunya virus strain S27) (UniProt Q8JUX5)
[7] = target: CHIKV E2-E1 envelope glycoproteins (strain S27), E2 mutant F84A (chikungunya virus strain S27) (UniProt Q8JUX5)
[8] = target: CHIKV E2-E1 envelope glycoproteins (strain S27), E2 mutant C91A (chikungunya virus strain S27) (UniProt Q8JUX5)
[9] = target: CHIKV E2-E1 envelope glycoproteins (strain S27), E2 mutant L111A (chikungunya virus strain S27) (UniProt Q8JUX5)
[10] = target: CHIKV E2-E1 envelope glycoproteins (strain S27), E2 mutant F100A (chikungunya virus strain S27) (UniProt Q8JUX5)
[11] = target: CHIKV E2-E1 envelope glycoproteins (strain S27), E2 mutant T65A (chikungunya virus strain S27) (UniProt Q8JUX5)
[12] = target: CHIKV E2-E1 envelope glycoproteins (strain S27), E2 mutant G44A (chikungunya virus strain S27) (UniProt Q8JUX5)
[13] = target: CHIKV E2-E1 envelope glycoproteins (strain S27), E2 mutant V32A (chikungunya virus strain S27) (UniProt Q8JUX5)
[14] = target: CHIKV E2-E1 envelope glycoproteins (strain S27), E2 mutant P90A (chikungunya virus strain S27) (UniProt Q8JUX5)
[15] = target: CHIKV E2-E1 envelope glycoproteins (strain S27), E2 mutant G114A (chikungunya virus strain S27) (UniProt Q8JUX5)
[16] = target: CHIKV E2-E1 envelope glycoproteins (strain S27), E2 mutant L67A (chikungunya virus strain S27) (UniProt Q8JUX5)
[17] = target: CHIKV E2-E1 envelope glycoproteins (strain S27), E2 mutant R38A (chikungunya virus strain S27) (UniProt Q8JUX5)
[18] = target: CHIKV E2-E1 envelope glycoproteins (strain S27), E2 mutant D132A (chikungunya virus strain S27) (UniProt Q8JUX5)
[19] = target: CHIKV E2-E1 envelope glycoproteins (strain S27), E2 mutant H123A (chikungunya virus strain S27) (UniProt Q8JUX5)
[20] = target: CHIKV E2-E1 envelope glycoproteins (strain S27), E2 mutant W64A (chikungunya virus strain S27) (UniProt Q8JUX5)
[21] = target: CHIKV E2-E1 envelope glycoproteins (strain S27), E2 mutant S88A (chikungunya virus strain S27) (UniProt Q8JUX5)
[22] = target: CHIKV E2-E1 envelope glycoproteins (strain S27), E2 mutant R86A (chikungunya virus strain S27) (UniProt Q8JUX5)
[23] = target: CHIKV E2-E1 envelope glycoproteins (strain S27), E2 mutant M97A (chikungunya virus strain S27) (UniProt Q8JUX5)
[24] = target: CHIKV E2-E1 envelope glycoproteins (strain S27), E2 mutant G57A (chikungunya virus strain S27) (UniProt Q8JUX5)
[25] = target: CHIKV E2-E1 envelope glycoproteins (strain S27), E2 mutant T58A (chikungunya virus strain S27) (UniProt Q8JUX5)
[26] = target: CHIKV E2-E1 envelope glycoproteins (strain S27), E2 mutant R80A (chikungunya virus strain S27) (UniProt Q8JUX5)
[27] = target: CHIKV E2-E1 envelope glycoproteins (strain S27), E2 mutant G98A (chikungunya virus strain S27) (UniProt Q8JUX5)
[28] = target: CHIKV E2-E1 envelope glycoproteins (strain S27), E2 mutant T96A (chikungunya virus strain S27) (UniProt Q8JUX5)
[29] = target: CHIKV E2-E1 envelope glycoproteins (strain S27), E2 mutant E40A (chikungunya virus strain S27) (UniProt Q8JUX5)
[30] = target: CHIKV E2-E1 envelope glycoproteins (strain S27), E2 mutant F129A (chikungunya virus strain S27) (UniProt Q8JUX5)
[31] = target: CHIKV E2-E1 envelope glycoproteins (strain S27), E2 mutant G108A (chikungunya virus strain S27) (UniProt Q8JUX5)
[32] = target: CHIKV E2-E1 envelope glycoproteins (strain S27), E2 mutant T45A (chikungunya virus strain S27) (UniProt Q8JUX5)
[33] = target: CHIKV E2-E1 envelope glycoproteins (strain S27), E2 mutant S118A (chikungunya virus strain S27) (UniProt Q8JUX5)

Substance | Binding Reactivity (% WT) [2] [% WT] | Binding Reactivity (% WT) [3] [% WT] | Binding Reactivity (% WT) [4] [% WT] | Binding Reactivity (% WT) [5] [% WT] | Binding Reactivity (% WT) [7] [% WT] | Binding Reactivity (% WT) [8] [% WT] | Binding Reactivity (% WT) [9] [% WT] | Binding Reactivity (% WT) [10] [% WT] | Binding Reactivity (% WT) [11] [% WT] | Binding Reactivity (% WT) [12] [% WT] | Binding Reactivity (% WT) [13] [% WT] | Binding Reactivity (% WT) [14] [% WT] | Binding Reactivity (% WT) [15] [% WT] | Binding Reactivity (% WT) [16] [% WT] | Binding Reactivity (% WT) [17] [% WT] | Binding Reactivity (% WT) [19] [% WT] | Binding Reactivity (% WT) [20] [% WT] | Binding Reactivity (% WT) [21] [% WT] | Binding Reactivity (% WT) [22] [% WT] | Binding Reactivity (% WT) [23] [% WT] | also measured
CHIKV mAb CHKV-88 (antibody) | 111 | 124 | 105 | 101 | 83.9 | 4 | 50.9 | 69.1 | 87.9 | 98.1 | 84.8 | 119 | 65.3 | 84.6 | 99.6 | 61.5 | 126 | 111 | 110 | 85.1 | Binding Reactivity (% WT) [1]: 83.8 % WT; Binding Reactivity (% WT) [6]: 76 % WT; Binding Reactivity (% WT) [18]: 120 % WT; Binding Reactivity (% WT) [24]: 134 % WT; Binding Reactivity (% WT) [25]: 81.2 % WT; Binding Reactivity (% WT) [26]: 128 % WT; Binding Reactivity (% WT) [27]: 106 % WT; Binding Reactivity (% WT) [28]: 103 % WT; Binding Reactivity (% WT) [29]: 108 % WT; Binding Reactivity (% WT) [30]: 25.1 % WT; Binding Reactivity (% WT) [31]: 71.1 % WT; Binding Reactivity (% WT) [32]: 85.7 % WT; Binding Reactivity (% WT) [33]: 117 % WT
CHIKV mAb IM-CKV065 (antibody) | 111 | 120 | 98.1 | 88.5 | 51.6 | -2 | 6.6 | 15.1 | 98.4 | 50.4 | 33.3 | 108 | 35.2 | 54.1 | 133 | 30.8 | 86.3 | 101 | 102 | 65.7 | Binding Reactivity (% WT) [1]: 119 % WT; Binding Reactivity (% WT) [6]: 66.9 % WT; Binding Reactivity (% WT) [18]: 126 % WT; Binding Reactivity (% WT) [24]: 108 % WT; Binding Reactivity (% WT) [25]: 93.5 % WT; Binding Reactivity (% WT) [26]: 125 % WT; Binding Reactivity (% WT) [27]: 112 % WT; Binding Reactivity (% WT) [28]: 113 % WT; Binding Reactivity (% WT) [29]: 124 % WT; Binding Reactivity (% WT) [30]: -1.1 % WT; Binding Reactivity (% WT) [31]: 34.8 % WT; Binding Reactivity (% WT) [32]: 62.4 % WT; Binding Reactivity (% WT) [33]: 86 % WT
Mxra8-Fc (mouse Mxra8 extracellular domain fused to mouse IgG2b Fc) (Fc fusion) | 12.1 | 91.9 | 91.2 | 102 | 77.6 | 1 | 25.7 | 26.2 | 68.9 | 72.2 | 47.1 | 114 | 79.1 | 77.4 | 90.7 | 33.6 | 17.7 | 94 | 91.5 | 95.1 | Binding Reactivity (% WT) [24]: 106 % WT; Binding Reactivity (% WT) [25]: 94.1 % WT; Binding Reactivity (% WT) [26]: 131 % WT; Binding Reactivity (% WT) [27]: 102 % WT; Binding Reactivity (% WT) [28]: 95.6 % WT; Binding Reactivity (% WT) [29]: 86.2 % WT; Binding Reactivity (% WT) [30]: 4.1 % WT; Binding Reactivity (% WT) [31]: 76.7 % WT; Binding Reactivity (% WT) [32]: 81.2 % WT; Binding Reactivity (% WT) [33]: 89.6 % WT
